In paper PMC12581312, “Lung endothelial PEAR1 induces tumor cell dormancy” (Molecular Cancer, 2025):

Molecular target: T1, Human recombinant LOXL2 (lysyl oxidase like 2) (human, UniProt Q9Y4K0 26-774)
T1 construct: lysyl oxidase like 2 (LOXL2), human, recombinant; source: bought: R&D Systems (catalog #2639-AO-010)
T1 sequence (looked up): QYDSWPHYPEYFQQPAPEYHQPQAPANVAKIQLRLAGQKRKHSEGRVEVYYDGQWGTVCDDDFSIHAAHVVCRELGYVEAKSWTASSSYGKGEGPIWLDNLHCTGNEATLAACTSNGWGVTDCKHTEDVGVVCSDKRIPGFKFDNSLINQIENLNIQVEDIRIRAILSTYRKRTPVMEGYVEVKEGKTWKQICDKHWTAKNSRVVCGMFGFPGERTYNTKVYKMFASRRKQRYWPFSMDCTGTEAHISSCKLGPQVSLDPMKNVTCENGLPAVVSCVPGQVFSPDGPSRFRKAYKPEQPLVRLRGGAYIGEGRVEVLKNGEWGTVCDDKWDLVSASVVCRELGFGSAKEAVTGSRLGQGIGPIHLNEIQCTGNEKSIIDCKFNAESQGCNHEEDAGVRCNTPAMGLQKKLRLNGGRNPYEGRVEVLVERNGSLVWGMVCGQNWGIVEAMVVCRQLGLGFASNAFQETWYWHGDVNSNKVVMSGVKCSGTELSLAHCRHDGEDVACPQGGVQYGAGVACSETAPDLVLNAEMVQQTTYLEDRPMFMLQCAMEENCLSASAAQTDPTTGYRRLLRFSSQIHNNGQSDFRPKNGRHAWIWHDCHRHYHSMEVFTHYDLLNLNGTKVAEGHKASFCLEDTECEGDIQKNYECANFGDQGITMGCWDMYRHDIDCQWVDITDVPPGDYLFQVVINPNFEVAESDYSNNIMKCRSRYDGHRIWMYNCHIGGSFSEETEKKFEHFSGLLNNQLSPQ
Experiment: pull-down; recombinant human PEAR1 (100 nM) immobilised on Ni-NTA magnetic beads, incubated with 100 nM recombinant human CTSD, SEMA6D or LOXL2 in 50 mM NaH2PO4, 300 mM NaCl, 20 mM imidazole, pH 8.0, 1 h at room temperature; control Ni-NTA beads; immunoblotting
Conditions: both partners purified

B1: Human recombinant PEAR1 extracellular part (platelet and endothelial aggregation receptor 1), His-tagged (domain or fragment, UniProt Q5VY43 21-755, looked up)
chain: LNPSDPNTCSFWESFTTTTKESHSRPFSLLPSEPCERPWEGPHTCPQPTVVYRTVYRQVVKTDHRQRLQCCHGFYESRGFCVPLCAQECVHGRCVAPNQCQCVPGWRGDDCSSECAPGMWGPQCDKPCSCGNNSSCDPKSGVCSCPSGLQPPNCLQPCTPGYYGPACQFRCQCHGAPCDPQTGACFCPAERTGPSCDVSCSQGTSGFFCPSTHSCQNGGVFQTPQGSCSCPPGWMGTICSLPCPEGFHGPNCSQECRCHNGGLCDRFTGQCRCAPGYTGDRCREECPVGRFGQDCAETCDCAPDARCFPANGACLCEHGFTGDRCTDRLCPDGFYGLSCQAPCTCDREHSLSCHPMNGECSCLPGWAGLHCNESCPQDTHGPGCQEHCLCLHGGVCQATSGLCQCAPGYTGPHCASLCPPDTYGVNCSARCSCENAIACSPIDGECVCKEGWQRGNCSVPCPPGTWGFSCNASCQCAHEAVCSPQTGACTCTPGWHGAHCQLPCPKGQFGEGCASRCDCDHSDGCDPVHGRCQCQAGWMGARCHLSCPEGLWGVNCSNTCTCKNGGTCLPENGNCVCAPGFRGPSCQRSCQPGRYGKRCVPCKCANHSFCHPSNGTCYCLAGWTGPDCSQPCPPGHWGENCAQTCQCHHGGTCHPQDGSCICPLGWTGHHCLEGCPLGTFGANCSQPCQCGPGEKCHPETGACVCPPGHSGAPCRIGIQEPFTVMPTTPVAYNSL
notes: platelet and endothelial aggregation receptor 1 (PEAR1), human, extracellular part; Held on Ni-NTA magnetic agarose beads by its His tag in the pull-downs; also called rhPEAR1; PEAR1 agarose; source: bought: R&D Systems (catalog #4527-PR-050)
B1: binds.
